Results reported in US20050232926A1, “Antibodies specific for cancer associated antigen SM5-1 and uses thereof” (Oncomax Acquisition Corp., priority 2003, published 2005).
Residues, ends and D or L forms follow the SMILES beside them. *: point of attachment. Cbz = O=C(OCc1ccccc1)*; CH2F = FC*

Legend:
QYC cells = experiment: Inhibition of huSM5-1 induced apoptosis by caspase inhibitors; assay type: cell-based, human; details: QYC cells incubated with caspase inhibitor at 50 mol/l for 2 h, then 50 ng/ml huSM5-1 antibody
Method: To determine whether caspase is involved in huSM5-1 antibody induced apoptosis, a variety of caspase inhibitors were tested to observe the inhibitory rate of apoptosis. The caspase inhibitors tested included common caspase inhibitor (Z-VAD-FMK), caspase-1 inhibitor (Z-WEHD-FMK), caspase-2 inhibitor (Z-VDVAD-FMK), caspase-3 inhibitor (Z-DEVD-FMK), caspase-4 inhibitor (Z-YVAD-FMK), caspase-6 inhibitor (Z-VEID-FMK), caspase-8 inhibitor (Z-IETD-FMK), caspase-9 inhibitor (Z-LEHD-FMK), caspase-10 inhibitor (Z-AVED-FMK), caspase-13 inhibitor (Z-LEED-FMK). QYC cells were incubated with caspase inhibitor at 50 mol/l for 2 h. QYC cells were then treated with 50 ng/ml huSM5-1 antibody. The inhibitory rates of these inhibitors were: 72% for pan-caspase inhibitor, 52% for caspase-10 inhibitor, 28% for caspase-6 inhibitor, 27% for caspase-1 inhibitor, 17% for caspase-8 inhibitor, 15% for caspase-13 inhibitor, 14% for caspase-4 inhibitor, 5% for caspase-9 inhibitor, 1% for caspase-2 inhibitor, 1% for caspase-3 inhibitor.

[1] = test system: hepatocellular carcinoma cell line QYC; experiment: Cell growth inhibition by huSM5-1, MTT assay; assay type: cell-based, human
Method: Cell growth inhibition by huSM5-1 antibody was tested using MTT assay. MTT assay is based on the principle that viable cells can reduce yellow MTT into blue purple crystals. Cells of interest (1×10^3) were incubated with various concentrations of antibodies. After a period of time, 20 μl MTT (0.5 mg/ml) was added into the cell culture medium and was incubated for 2 h. After the incubation, culture medium was removed and 150 μl DMSO was added to solubilize the MTT precipitate. The reduced MTT was examined by measuring absorbance at 490 nm using Benchmark optical absorption reading machine (Bio-Rad Laboratories). The cell growth inhibition was calculated according to the following equation: Inhibition (%)=(B−C)/(A−C)×100
“A” represents the OD value of cells without huSM5-1 treatment; “B” represents the OD value of huSM5-1 treated cells; and “C” represents the OD value of negative control. Each condition was performed in triplicate.
Growth inhibition by huSM5-1 were tested in four tumor cell lines (hepatocellular carcinoma cell QYC and XJC, breast cancer cell line MDA-MB-231, and melanoma cell line CRL-1872) using MTT assay. Cells were treated with different amount of huSM5-1 (50 ng/ml, 10 ng/ml, 1 ng/ml) for 24 h, 48 h, 72 h, and 96 h. The most inhibition occurred when the concentration of the antibody was at 50 ng/ml and after 72 h treatment.

caspase-10 [2] = experiment: Caspase-10 colorimetric activity assay in huSM5-1 treated XJC cells; assay type: cell-based
Method: (§1) To further confirm that huSM5-1 induced apoptosis is caspase-10 related, caspase-10 color comparing analysis kit was used to examine the increase of caspase-10 bioactivity in QYC and XJC cells. Caspase-10 activity was examined with caspase-10 analysis kit (R&D, USA) according to manufacture's instruction. Cells were incubated with 50 ng/ml huSM5-1 antibody for a certain period of time. Cells were then centrifuged and lysed in a lysis buffer (25 ul/10^6 cells) on ice for 10 min. The lysates were centrifuged, and the supernatant was transferred into new tubes and kept on ice. The enzyme activity of caspase was examined on 96-well micro-titer plate. Each reaction included 50 μl supernatant from cell lysate, 50 μl 2× reaction buffer, 10 μl fresh DTT storage solution. In addition, 5 ul caspase-10 color-comparing substrate (AEVD-pNA) was added into the reaction. The plate was incubated at 37° C. for 1-2 h and absorbance at 405 nm was then measured. The increase of caspase-10 related activity was calculated according to the following equation: Caspase-10 activity (%)=(B−C)/(A−C)×100%
(§2) “A” represents OD value of supernatant from cell lysates without huSM5-1 antibody treatment; “B” represents OD value of supernatant from cell lysate treated with huSM5-1; “C” represents OD value of negative control. Each test was done in triplicate.

caspase-10 [3] = experiment: Caspase-10 colorimetric activity assay in huSM5-1 treated QYC cells; assay type: cell-based, human
Method: as §1, §2

melanoma cell line A2058 [4] = experiment: MTT assay of viable cells after huSM5-1 treatment; assay type: cell-based, human; details: 570 nm, final volume 500 μl, 24 h
Method: (§3) The melanoma cell line A2058 was expanded to 10^6/ml in RPMI-1640 culture medium. The cell suspension (20 μl) and different amount of huSM5-1 (0, 1, 5, 10, 20, 50, 100 μl) were added into each well of the 96 well plate. The antibody huSM5-1 was diluted in RPMI-1640 medium containning 10% FCS to reach a final concentration of 1 μg/μl before it was added into the well. RPMI-1640 medium containing 10% FCS was added to each well to make a final volume of 500 μl in each well. Each condition was performed in triplicate. Cells were incubated at 37° C. in a humidified incubator at 5% CO2 for 24 h. At the end of the incubation, cells were suspended and viable cells were examined under microscope or assessed using MTT.
MTT solution (5 mg/ml) was added into 0.2 ml cell suspension describe above at 1:10 dilution. The cells were then incubated at 37° C. for 30 min and optical adsorption at 570 nm for each sample was read.

melanoma cell line A2058 [5] = experiment: Viable cell count after huSM5-1 treatment; assay type: cell-based, human; details: final volume 500 μl, 24 h, relative to wells without huSM5-1
Method: as §3
Viable cells in 0.2 ml cell suspension from each well were counted. Viable cells are expressed as percentage of viable cells compared to the wells without addition of huSM5-1.

For `COC(=O)C[C@H](NC(=O)[C@H](C)NC(=O)[C@@H](NC(=O)OCc1ccccc1)C(C)C)C(=O)CF` [pan-caspase inhibitor, Z-VAD-FMK] (Cbz-Val-Ala-Asp(OMe)-CH2F), the “inhibitory rate of huSM5-1 induced apoptosis” value (from here on “inhibitory rate”) (QYC cells) was 72%.

`COC(=O)C[C@H](NC(=O)[C@H](C)NC(=O)[C@@H](NC(=O)[C@H](Cc1ccc(O)cc1)NC(=O)OCc1ccccc1)C(C)C)C(=O)CF` [caspase-4 inhibitor, Z-YVAD-FMK] was tested, and the “inhibitory rate” value (QYC cells) was 14%.

For `COC(=O)CC[C@H](NC(=O)[C@H](CC(C)C)NC(=O)OCc1ccccc1)C(=O)N[C@@H](Cc1cnc[nH]1)C(=O)N[C@@H](CC(=O)OC)C(=O)CF` [caspase-9 inhibitor, Z-LEHD-FMK] (Cbz-LE(OMe)HD(OMe)-CH2F), the “inhibitory rate” value (QYC cells) was 5%.

`CC[C@H](C)[C@H](NC(=O)[C@H](CCC(=O)OC)NC(=O)[C@@H](NC(=O)OCc1ccccc1)C(C)C)C(=O)N[C@@H](CC(=O)OC)C(=O)CF` [caspase-6 inhibitor, Z-VEID-FMK] (Cbz-VE(OMe)ID(OMe)-CH2F) was tested, and the “inhibitory rate” value (QYC cells) was 28%.

With `COC(=O)C[C@H](NC(=O)[C@H](C)NC(=O)[C@@H](NC(=O)[C@H](CC(=O)OC)NC(=O)[C@@H](NC(=O)OCc1ccccc1)C(C)C)C(C)C)C(=O)CF` [caspase-2 inhibitor, Z-VDVAD-FMK] (Cbz-VD(OMe)VAD(OMe)-CH2F) the “inhibitory rate” value (QYC cells) was 1%.

In the case of `COC(=O)CC[C@H](NC(=O)[C@H](Cc1c[nH]c2ccccc12)NC(=O)OCc1ccccc1)C(=O)N[C@@H](Cc1cnc[nH]1)C(=O)N[C@@H](CC(=O)OC)C(=O)CF` [caspase-1 inhibitor, Z-WEHD-FMK] (Cbz-WE(OMe)HD(OMe)-CH2F), the “inhibitory rate” value (QYC cells) is reported as 27%.

For `CC[C@H](C)[C@H](NC(=O)OCc1ccccc1)C(=O)N[C@@H](CCC(=O)OC)C(=O)N[C@H](C(=O)N[C@@H](CC(=O)OC)C(=O)CF)[C@@H](C)O` [caspase-8 inhibitor, Z-IETD-FMK] (Cbz-IE(OMe)TD(OMe)-CH2F), the “inhibitory rate” value (QYC cells) was 17%.

With `COC(=O)CC[C@H](NC(=O)[C@H](CC(=O)OC)NC(=O)OCc1ccccc1)C(=O)N[C@H](C(=O)N[C@@H](CC(=O)OC)C(=O)CF)C(C)C` [caspase-3 inhibitor, Z-DEVD-FMK] the “inhibitory rate” value (QYC cells) was 1%.

`COC(=O)CCC(NC(=O)C(NC(=O)C(C)NC(=O)OCc1ccccc1)C(C)C)C(=O)NC(CC(=O)OC)C(=O)CF` (stereo not drawn) [caspase-10 inhibitor, Z-AVED-FMK] (Cbz-AVE(OMe)D(OMe)-CH2F; configuration not given here) was tested, and the “inhibitory rate” value (QYC cells) was 52%.

For `COC(=O)CC[C@H](NC(=O)[C@H](CCC(=O)OC)NC(=O)[C@H](CC(C)C)NC(=O)OCc1ccccc1)C(=O)N[C@@H](CC(=O)OC)C(=O)CF` [caspase-13 inhibitor, Z-LEED-FMK] (Cbz-LE(OMe)E(OMe)D(OMe)-CH2F), the “inhibitory rate” value (QYC cells) was 15%.

B1: huSM5-1: human SM5-1 specific monoclonal antibody from phage library; VH SEQ ID NO:9, VL SEQ ID NO:10 (antibody, listed as Homo Sapiens, V domains shown)
VH: QVQLVESGGGVVQPGCSLRLSCSSSGYTFTSYTMHWVRQAPGKGLEWIGYINPYNDGGKYNEKFKWRFSISSDKSKNTLFLQSDSLTPEDTGVYYCARGSRYDWYGDYWGQGTPVTVSS
VL: DIQMTQSPSSLSGSVGDRVTITCDSSQSVLYSSKDDNYLAWYQQGPGKAPSLLIYYASDRESDVPSRFSGSGSGDDYTLTISSLQPEDAATYYCHQWFSSYTFDQGTKLNITR
B1 was tested, and the growth inhibition ([1]; 1 ng/ml, 24 h) was 7%, the growth inhibition ([1]; 1 ng/ml, 48 h) was ~5% and the growth inhibition ([1]; 1 ng/ml, 72 h) was 10%. It also gave a growth inhibition ([1]; 1 ng/ml, 96 h) of 2.5%, a growth inhibition ([1]; 10 ng/ml, 24 h) of 11% and a growth inhibition ([1]; 10 ng/ml, 48 h) of ~17%. For the same molecule, the growth inhibition ([1]; 10 ng/ml, 72 h) was 19%, the growth inhibition ([1]; 10 ng/ml, 96 h) was 11% and the growth inhibition ([1]; 50 ng/ml, 24 h) was 29%. For the same molecule, the growth inhibition ([1]; 50 ng/ml, 48 h) was “about 28%”, the growth inhibition ([1]; 50 ng/ml, 72 h) was 43% and the growth inhibition ([1]; 50 ng/ml, 96 h) was 36%. The “Caspase-10 activity (%)” value (caspase-10 [2]; 50 ng/ml huSM5-1, 48 h) was 17%, the “Caspase-10 activity (%)” value (caspase-10 [2]; 50 ng/ml huSM5-1, 72 h) was 38% and the “Caspase-10 activity (%)” value (caspase-10 [2]; 50 ng/ml huSM5-1, 96 h) was 28%. The “Caspase-10 activity (%)” value (caspase-10 [3]; 50 ng/ml huSM5-1, 48 h) was 13%, the “Caspase-10 activity (%)” value (caspase-10 [3]; 50 ng/ml huSM5-1, 96 h) was 51% and the “Optical adsorption (%)” value (melanoma cell line A2058 [4]; huSM5-1 addition 1 ul (1 μg/μl)) was 96.3%. For the same molecule, the “Optical adsorption (%)” value (melanoma cell line A2058 [4]; huSM5-1 addition 5 ul (1 μg/μl)) was 84.9%, the “Optical adsorption (%)” value (melanoma cell line A2058 [4]; huSM5-1 addition 10 ul (1 μg/μl)) was 66.2% and the “Optical adsorption (%)” value (melanoma cell line A2058 [4]; huSM5-1 addition 20 ul (1 μg/μl)) was 47.7%. For the same molecule, the “Optical adsorption (%)” value (melanoma cell line A2058 [4]; huSM5-1 addition 50 ul (1 μg/μl)) was 33.6%, the “Optical adsorption (%)” value (melanoma cell line A2058 [4]; huSM5-1 addition 100 ul (1 μg/μl)) was 20.1% and the “Cell survival (%)” value (melanoma cell line A2058 [5]; huSM5-1 addition 1 μl (1 μg/μl)) was 87.8%. The “Cell survival (%)” value (melanoma cell line A2058 [5]; huSM5-1 addition 5 μl (1 μg/μl)) was 68.8%, the “Cell survival (%)” value (melanoma cell line A2058 [5]; huSM5-1 addition 10 μl (1 μg/μl)) was 53.2% and the “Cell survival (%)” value (melanoma cell line A2058 [5]; huSM5-1 addition 20 μl (1 μg/μl)) was 42.6%. The “Cell survival (%)” value (melanoma cell line A2058 [5]; huSM5-1 addition 50 μl (1 μg/μl)) was 32.6% and the “Cell survival (%)” value (melanoma cell line A2058 [5]; huSM5-1 addition 100 μl (1 μg/μl)) was 22.6%.
